Experimental data from article PMC7710122.

Assays:
[1] = western blot of cell lysates; details: glycan changed form; control: MDA/vec
[2] = western blot of β1 in purified sEVs; details: glycan changed form; control: vec-sEVs

For integrin β1: MGAT3 overexpression, the expression_or_secretion [1] was “no change” and the localisation_or_trafficking [2] was “no change”.
